The target of assay [1] is T1, human plasma derived FXIa (human, UniProt P03951 19-625). In words: cell-based or functional assay.
For assay [2], the target named is T1, human plasma derived FXIa. In words: cell-based or functional assay. This is another data set of the same source.
The target of another assay is human kallikrein (human, UniProt P03952 20-638). In words: direct ELISA, panel 'Human Kallikrein': antigen coated on the plate, IgG titrated, fluorescence (RFU). The method, then:
(§1) For direct coating ELISAs, antigens were immobilized on 384-well Maxisorp™ microtiter plates over night at 4° C. using the concentrations as shown in Table 5. After blocking with 5% skim milk powder in PBS (80 μl/well), 20 μl/well of Fab-containing E. coli lysates or purified antibodies at various concentrations (typically 12 points of a 1:3 titration starting at 200 nM IgG or Fab, respectively) were added to plates and incubated for 1 h at room temperature. […] Fluorescence emission at 535 nm was recorded with excitation at 430 nm. Multiple wash steps with PBS+0.05% Tween20 were performed in between individual assay steps.

Another assay concerns the target human pre-kallikrein (human, UniProt P03952 20-638). Nature of the assay: direct ELISA, panel 'Human Pre-kallikrein': antigen coated on the plate, IgG titrated, fluorescence (RFU). The method, then:
as §1
Background: An ELISA detects its analyte on a solid surface through an enzyme-linked reagent.

The next assay concerns the target rabbit FXI (rabbit). In words: direct ELISA, panel 'Rabbit FXI': antigen coated on the plate, IgG titrated, AP-anti-human F(ab)2 and AttoPhos fluorescence (RFU); half-maximal binding concentration of the fit, headed 'IC50' in the drawn table; unit taken from the axis 'Conc. [nM]'. The method, then: as §1
A further assay concerns the target T2, human plasma-derived FXI (human, UniProt P03951 19-625).
T2 construct: This is the zymogen, which has two chains; also called human FXI; Factor XI
In words: direct ELISA, panel 'Human plasma FXI': antigen coated on the plate, IgG titrated, AP-anti-human F(ab)2 and AttoPhos fluorescence (RFU); half-maximal binding concentration of the fit, headed 'IC50' in the drawn table; unit taken from the axis 'Conc. [nM]'. As to the method:
as §1

Assay [3] deals with T1, human plasma derived FXIa. Nature of the assay: direct ELISA, panel 'Human plasma FXIa': antigen coated on the plate, IgG titrated, AP-anti-human F(ab)2 and AttoPhos fluorescence (RFU); half-maximal binding concentration of the fit, headed 'IC50' in the drawn table; unit taken from the axis 'Conc. [nM]'. The method, then: as §1
The target of a further assay is cynomolgus monkey FXI (cynomolgus monkey). Nature of the assay: direct ELISA, panel 'Cynomolgus monkey FXI': antigen coated on the plate, IgG titrated, AP-anti-human F(ab)2 and AttoPhos fluorescence (RFU); half-maximal binding concentration of the fit, headed 'IC50' in the drawn table; unit taken from the axis 'Conc. [nM]'. The method, then:
as §1

The target of assay [4] is T1, human plasma derived FXIa. Nature of the assay: solution equilibrium titration (SET), ECL read-out, purified Fab at 500 pM with titrated hFXIa; ± is the 95% confidence interval of the fit. The method, then:
(§2) Experiments were carried out in polypropylene microtiter plates and with PBS (GIBCO 14190, pH 7.0-7.2) containing 0.5% BSA and 0.02% Tween20 as assay buffer. Serial dilutions of unlabeled FXIa antigen were prepared, starting with a concentration at least 10 times higher than the expected KD. Wells without antigen were used to determine Bₘₐₓ values; wells containing only assay buffer were used to determine background. After addition of an appropriate amount of binder (antibody concentration similar to or below the expected KD, 60 μL final volume), the mixture was incubated over night at RT.
(§3) MSD plates were coated with 1 μg/mL human plasma derived FXIa (30 μL per well). After washing the plate with PBS containing 0.05% Tween 20, the equilibrated samples were transferred to the plates and incubated for 20 min. Following incubation, 30 μL per well of the MSD-Sulfo-tag labeled detection antibody (anti-Flag M2 (Sigma) 1:2,000) was added to the washed MSD plate and incubated for 30 min at RT on an Eppendorf shaker (700 rpm).
After washing the MSD plate and adding 30 μL/well MSD Read Buffer T with surfactant, electrochemiluminescence signals were detected using a Sector Imager 6000 (Meso Scale Discovery, Gaithersburg, Md., USA).

Assay [5] deals with T1, human plasma derived FXIa. Nature of the assay: solution equilibrium titration (SET), IgG at 20 pM, 1:1 binding model. The method, then:
as §2, §3
The SET method described in Example 2 was used to determine the KD for AM4 (IgG), and compared to NOV1401, the germlined version of its parental antibody NOV1090.

Assay [6] concerns the target T1, human plasma derived FXIa. Nature of the assay: SET screening compared with SET KD of NOV1090 Fab.
In assay [7] the target is T1, human plasma derived FXIa. In words: SET KD estimates of Fabs compared with SET KD of NOV1090 Fab.
For assay [8], the target named is T1, human plasma derived FXIa. In words: SET screening, KD estimate from 5 data points, unpurified Fab in bacterial lysate; ± is the 95% confidence interval of the fit. From the text:
To estimate Fab KDs, bacterial lysates were screened by SET. The SET screening method (see, e.g., Della Ducata et al (2015) J Biomol Screen; 20(10):1256-67) was generally performed as described above for the SET determination method. For ranking of the matured binders by SET based on the principles described by Haenel and coworkers (Haenel et al (2005) Anal Biochem; 339(1):182-4), a constant amount of diluted BEL extract (bacterial lysate) was equilibrated over night with different concentrations of antigen.
The mixture was then transferred to MSD plates, which were previously coated with antigen (1 μg/mL human plasma FXIa), and after incubation and washing, a suitable MSD-Sulfo-tag labeled detection antibody was added (anti-Flag M2, Sigma).

Assay [9] concerns the target T1, human plasma derived FXIa. Nature of the assay: method not stated in the sentence (compared with the SET KD of NOV1090 Fab); NOV1401 Fab, cited for comparison with the SET KD of NOV1090 Fab.
The target of assay [10] is T1, human plasma derived FXIa. In words: direct ELISA, panel 'Human plasma FXIa': antigen coated on the plate, IgG titrated, AP-anti-human F(ab)2 and AttoPhos fluorescence (RFU); the printed IC50 cell of this row is under recheck. The method, then:
as §1

The values that follow come from patent US20190330372A1 (Novartis, published 2019).

Substitutions are numbered along the chain they refer to. Names may count otherwise. “And” between values parts separate entries of the source, which are not always exact repeats. Equal entries are not always repeated.

As a reminder, the IC50 is the concentration that gives 50% inhibition. As usually defined, the Kd is the free concentration of one partner at which half of the binding sites on the other are occupied at equilibrium, for simple one-to-one binding. As a reminder, the EC50 (read off the curve) is the concentration needed to bring the measured effect to its halfway point.

Chain of human kallikrein (P03952 20-638 limits assumed): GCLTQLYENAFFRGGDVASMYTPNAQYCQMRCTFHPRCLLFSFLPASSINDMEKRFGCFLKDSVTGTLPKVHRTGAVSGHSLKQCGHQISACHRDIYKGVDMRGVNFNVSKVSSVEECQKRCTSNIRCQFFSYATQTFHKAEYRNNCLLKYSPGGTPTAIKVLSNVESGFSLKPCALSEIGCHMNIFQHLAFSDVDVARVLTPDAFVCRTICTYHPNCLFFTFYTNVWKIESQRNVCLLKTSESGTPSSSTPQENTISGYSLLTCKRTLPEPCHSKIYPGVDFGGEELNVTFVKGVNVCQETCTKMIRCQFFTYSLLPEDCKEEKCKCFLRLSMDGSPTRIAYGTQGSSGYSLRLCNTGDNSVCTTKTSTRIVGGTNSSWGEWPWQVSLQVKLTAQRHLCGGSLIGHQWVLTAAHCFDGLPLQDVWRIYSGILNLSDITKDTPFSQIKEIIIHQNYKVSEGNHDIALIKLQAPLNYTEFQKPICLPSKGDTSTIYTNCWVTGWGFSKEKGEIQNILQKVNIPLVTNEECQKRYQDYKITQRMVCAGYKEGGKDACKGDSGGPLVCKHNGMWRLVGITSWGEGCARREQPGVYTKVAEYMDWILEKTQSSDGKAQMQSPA
Chain of human pre-kallikrein (P03952 20-638 limits assumed): as above
T2 sequence (P03951 19-625 C226S limits assumed): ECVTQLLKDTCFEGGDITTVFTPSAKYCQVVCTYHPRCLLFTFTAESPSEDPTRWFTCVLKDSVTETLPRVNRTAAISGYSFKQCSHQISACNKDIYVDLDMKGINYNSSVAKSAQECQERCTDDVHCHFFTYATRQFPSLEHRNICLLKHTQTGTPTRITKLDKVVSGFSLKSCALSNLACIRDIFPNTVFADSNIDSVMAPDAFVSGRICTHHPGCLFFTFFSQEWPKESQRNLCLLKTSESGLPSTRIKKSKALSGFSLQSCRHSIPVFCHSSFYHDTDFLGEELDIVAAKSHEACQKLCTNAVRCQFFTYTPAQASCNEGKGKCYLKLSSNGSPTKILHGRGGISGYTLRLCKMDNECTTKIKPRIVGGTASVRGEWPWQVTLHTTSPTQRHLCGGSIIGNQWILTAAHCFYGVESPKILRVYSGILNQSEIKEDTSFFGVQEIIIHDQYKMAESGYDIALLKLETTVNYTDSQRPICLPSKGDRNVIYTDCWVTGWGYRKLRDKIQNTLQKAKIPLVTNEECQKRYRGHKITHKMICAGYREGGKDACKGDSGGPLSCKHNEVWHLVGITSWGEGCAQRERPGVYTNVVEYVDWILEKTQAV
T1 sequence (P03951 19-625 C226S limits assumed): as above
Chain of cynomolgus monkey FXI (cynomolgus monkey) (P03951 other isoform, or with tags, fused parts or gaps): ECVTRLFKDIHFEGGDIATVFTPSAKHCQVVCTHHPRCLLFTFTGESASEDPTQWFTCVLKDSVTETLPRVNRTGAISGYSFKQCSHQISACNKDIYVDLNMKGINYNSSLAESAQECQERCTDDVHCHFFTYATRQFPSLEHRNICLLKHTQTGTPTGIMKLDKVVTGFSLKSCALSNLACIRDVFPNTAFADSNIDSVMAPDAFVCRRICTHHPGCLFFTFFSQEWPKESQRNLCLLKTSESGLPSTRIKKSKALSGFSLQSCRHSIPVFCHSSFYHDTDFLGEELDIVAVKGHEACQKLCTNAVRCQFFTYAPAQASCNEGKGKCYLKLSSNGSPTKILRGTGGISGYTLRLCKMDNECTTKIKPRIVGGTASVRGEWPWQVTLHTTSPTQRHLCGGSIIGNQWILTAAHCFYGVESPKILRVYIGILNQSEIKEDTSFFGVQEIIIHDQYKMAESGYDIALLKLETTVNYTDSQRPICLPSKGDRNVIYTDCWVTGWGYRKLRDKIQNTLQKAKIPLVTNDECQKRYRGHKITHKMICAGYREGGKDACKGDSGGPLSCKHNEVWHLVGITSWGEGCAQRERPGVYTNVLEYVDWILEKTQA

B1: AM1 (IgG) (antibody, V domains shown)
VH: QVQLLESGGGLVQPGGSLRLSCAASGFTFSTAAMSWVRQAPGKGLEWVSTIDSWGDDTDYADSVKGRFTISRDNSKNTLYLQMNSLRAEDTAVYYCARELSYLYSGYYFDYWGQGTLVTVSS
VL: DIVLTQPPSVSGAPGQRVTISCSGSSSNIGSNDVSWYQQLPGTAPKLLIYKNYNRPSGVPDRFSGSKSGTSASLAITGLQAEDEADYYCSAWDQRQFDVVFGGGTKLTVLG
For the molecule B1, the “TGA IC50, fold lower compared to NOV1401” value in assay [1] is roughly 4 fold. Moreover, the “TGA IC50” value in [2] was determined as 6 nM. The “TGA Residual Thrombin [nM] (%)” value in assay [2] was 180 nM and 37.5%. Further, the binding result with human kallikrein and with human pre-kallikrein was “no binding (tested: about 200 nM)” each time. Moreover, the IC50 is 0.463 nM in the assay with rabbit FXI, 0.215 nM with human plasma-derived FXI, 0.274 nM in assay [3] and 0.448 nM with cynomolgus monkey FXI.

B2: NOV1090 Fab (Fab, V domains shown)
VH: B1 VH with T50G, D52S, S53G, W54S, D56S, D57S, D59Y
VL: DIVLTQPPSVSGAPGQRVTISCSGSSSNIGSNDVSWYQQLPGTAPKLLIYKNYNRPSGVPDRFSGSKSGTSASLAITGLQAEDEADYYCSAWDQRQFDVVFGGGTKLTVL
notes: Purified HuCAL Fab, at least 90% monomer; It was detected with anti-Flag M2, so it carries a Flag tag; also called anti-FXI/FXIa Fab; parental NOV1090 Fab fragment
Regarding B2, the dissociation constant (Kd) in assay [4] was found to be 0.21 nM.

B3: NOV1401 (IgG) (antibody, V domains shown)
VH: B1 VH with T50G, D52S, S53G, W54S, D56S, D57S, D59Y
VL: B1 VL with D1Q, I2S, V10A, A13T, T77S, A81S
notes: Germlined version of NOV1090, human IgG1/lambda with D265A and P329A in the Fc
B3: in [2], the “TGA IC50” value worked out at 24 nM; the “TGA Residual Thrombin [nM] (%)” value was 159 nM and 34.4%. The same molecule registered a dissociation constant Kd in assay [5] of 0.00312 nM.

B4: AM2 Fab (Fab, V domains shown)
VH: B1 VH with T50S, D52E, S53Y, W54Y, G55D, D56T, D59H
VL: B2 VL
notes: Unpurified Fab in bacterial lysate (BEL extract), used in SET screening
Consider B4, for which the “fold lower KD than NOV1090 Fab” value in [6] is roughly 7 fold. Besides, the “fold increase in affinity over NOV1090 Fab” value (from here on “fold increase in affinity”) in assay [7] is roughly 10 fold. The dissociation constant Kd in assay [8] is 0.027 nM.

B5: AM3 Fab (Fab, V domains shown)
VH: B1 VH with D52E, S53Y, W54S, G55S, D56Q, D57E, D59Y
VL: B2 VL
notes: as for B4
Take B5: the “fold lower KD than NOV1090 Fab” value in assay [6] was roughly 7 fold. For the same molecule, the “fold increase in affinity” value in assay [7] was roughly 10 fold. Further, the Kd in assay [8] was 0.029 nM.

B6: AM1 Fab (Fab, V domains shown)
VH: B1 VH
VL: B2 VL
notes: as for B4
For the molecule B6, in [6], the “fold lower KD than NOV1090 Fab” value was roughly 7 fold. Also, the “fold increase in affinity” value in assay [7] was roughly 10 fold. Also, the Kd in [8] is 0.032 nM.

B7: AM2 (IgG) (antibody, V domains shown)
VH: B1 VH with T50S, D52E, S53Y, W54Y, G55D, D56T, D59H
VL: B1 VL
As to B7, the “TGA IC50” value in [2] amounted to 7 nM. The “TGA Residual Thrombin [nM] (%)” value in assay [2] was 186 nM and 36.6%. For the same molecule, the binding result with human kallikrein and with human pre-kallikrein was “no binding (tested: about 200 nM)” in each case. The IC50 was 0.432 nM with rabbit FXI, 0.331 nM with human plasma-derived FXI, 0.466 nM in [3] and 0.399 nM in the assay with cynomolgus monkey FXI.

B8: NOV1401 Fab (Fab, V domains shown)
VH: B1 VH with T50G, D52S, S53G, W54S, D56S, D57S, D59Y
VL: B2 VL with D1Q, I2S, V10A, A13T, T77S, A81S
notes: Fab of NOV1401, the germlined version of NOV1090 with identical CDRs
In turn, B8 registered a Kd in assay [9] of 0.305 nM.

B9: NOV1090 (IgG) (antibody, V domains shown)
VH: B1 VH with T50G, D52S, S53G, W54S, D56S, D57S, D59Y
VL: B1 VL
notes: Non-germlined version of NOV1401, human IgG1/lambda; also called parental NOV1090; parental IgG
Regarding B9, the binding result with human kallikrein and with human pre-kallikrein was “no binding (tested: about 200 nM)” each time. Also, in assay [10], the 50% effective concentration (EC50 (read off the curve)) is roughly 0.6 nM. The concentration for half-maximal inhibition (IC50) with rabbit FXI came out at 0.504 nM; with human plasma-derived FXI it was 0.392 nM; with cynomolgus monkey FXI it was 0.58 nM.
